One molecule from article PMC4678826, “Different genome stability proteins underpin primed and naïve adaptation in E. coli CRISPR-Cas immunity” can be followed below.

The target in one data set is T1, Cas1;Cas2 (Escherichia coli;Escherichia coli, UniProt Q46896;P45956 1-305;1-94, |).
T1 sequence 1: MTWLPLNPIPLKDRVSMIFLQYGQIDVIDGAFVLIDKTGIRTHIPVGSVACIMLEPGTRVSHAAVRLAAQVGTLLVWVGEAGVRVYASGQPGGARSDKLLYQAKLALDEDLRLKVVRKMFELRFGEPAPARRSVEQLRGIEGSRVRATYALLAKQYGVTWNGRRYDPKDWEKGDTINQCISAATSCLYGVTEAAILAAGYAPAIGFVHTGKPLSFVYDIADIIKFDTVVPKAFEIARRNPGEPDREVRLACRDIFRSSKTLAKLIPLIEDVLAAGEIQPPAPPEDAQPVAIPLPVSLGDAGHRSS
T1 sequence 2: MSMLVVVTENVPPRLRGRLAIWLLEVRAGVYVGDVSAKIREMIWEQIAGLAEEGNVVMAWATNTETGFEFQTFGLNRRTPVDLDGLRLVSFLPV
Put plainly: EMSA; 5 mM EDTA; super-shifted complex Y; EMSA: 7 mM Tris-HCl pH 8.5, 9% glycerol, 50 mM NaCl, 100 ug/ml BSA, 5 mM EDTA, 10 min ambient temperature, 6 nM DNA, 5% acrylamide TBE gel at room temperature. Conditions: protein: recombinant;recombinant; tags: N-terminal His6;N-terminal His6; chain copies: 4;2; label: 5'-32P; fork; 25 nt leading arm duplex, 26 nt ssDNA flap.

In the next data set the target is T2, Cas1 R84G (Escherichia coli, UniProt Q46896 1-305, R84G).
T2 sequence: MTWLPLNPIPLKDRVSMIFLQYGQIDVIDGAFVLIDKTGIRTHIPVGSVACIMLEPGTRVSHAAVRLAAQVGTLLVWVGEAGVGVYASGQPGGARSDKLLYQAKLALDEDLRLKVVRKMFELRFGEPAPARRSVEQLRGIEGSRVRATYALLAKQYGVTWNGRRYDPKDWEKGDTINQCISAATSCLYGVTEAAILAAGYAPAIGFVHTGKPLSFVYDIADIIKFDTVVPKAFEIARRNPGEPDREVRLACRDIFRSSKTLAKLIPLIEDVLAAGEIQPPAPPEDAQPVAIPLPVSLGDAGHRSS
Put plainly: EMSA; 5 mM EDTA; EMSA: 7 mM Tris-HCl pH 8.5, 9% glycerol, 50 mM NaCl, 100 ug/ml BSA, 5 mM EDTA, 10 min ambient temperature, 6 nM DNA, 5% acrylamide TBE gel at room temperature. Conditions: protein: recombinant; tags: N-terminal His6; chain copies: 2; label: 5'-32P; fork; 25 nt leading arm duplex, 26 nt ssDNA flap.

The next data set has as its target T3, Cas1 R138G (Escherichia coli, UniProt Q46896 1-305, R138G).
T3 sequence: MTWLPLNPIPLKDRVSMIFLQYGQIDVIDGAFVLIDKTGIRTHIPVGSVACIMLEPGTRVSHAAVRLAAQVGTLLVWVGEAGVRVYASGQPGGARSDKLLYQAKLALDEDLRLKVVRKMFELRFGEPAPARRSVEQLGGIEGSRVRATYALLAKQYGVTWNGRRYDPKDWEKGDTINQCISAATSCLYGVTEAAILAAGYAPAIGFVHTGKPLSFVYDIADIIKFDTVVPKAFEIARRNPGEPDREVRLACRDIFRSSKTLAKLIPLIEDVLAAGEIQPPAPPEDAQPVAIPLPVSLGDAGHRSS
The data set is described as above. Conditions: protein: recombinant; tags: N-terminal His6; chain copies: 2; label: 5'-32P; fork; 25 nt leading arm duplex, 26 nt ssDNA flap.

Another data set deals with T4, Cas1 R123G (Escherichia coli, UniProt Q46896 1-305, R123G).
T4 sequence: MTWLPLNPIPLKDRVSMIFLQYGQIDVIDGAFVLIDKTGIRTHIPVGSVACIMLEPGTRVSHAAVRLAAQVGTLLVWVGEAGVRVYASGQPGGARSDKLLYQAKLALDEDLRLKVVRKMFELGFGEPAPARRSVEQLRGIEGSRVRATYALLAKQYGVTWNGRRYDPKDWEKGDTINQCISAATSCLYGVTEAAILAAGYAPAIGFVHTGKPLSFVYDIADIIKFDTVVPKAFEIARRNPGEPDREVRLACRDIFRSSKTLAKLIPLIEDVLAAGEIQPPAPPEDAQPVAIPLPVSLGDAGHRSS
The data set is described as above. As to conditions: protein: recombinant; tags: N-terminal His6; chain copies: 2; label: 5'-32P; fork; 25 nt leading arm duplex, 26 nt ssDNA flap.

B1: fork-1 (mixed)
DNA 1: CAACGTCATAGACGATTACATTGCTACATGGAGCTGTCTAGAGGATCCGA
DNA 2: TCGGATCCTCTAGACAGCTCCATGATCACTGGCACTGGTAGAATTCGGC
DNA 3: GCCGAATTCTACCAGTGCCAGTGAT
As to B1, the binding result is “binds” with Cas1;Cas2, “no binding” in the data set with Cas1 R84G, “no binding” with Cas1 R138G and “no binding” in the data set with Cas1 R123G.
